Test results taken from patent publication US20140329761A1, “PREVENTION AND TREATMENT OF ACUTE INFLAMMATORY CONDITIONS” (The University of Queensland, priority 2011, published 2014).
Where no end group is shown, it is not given here. [ ]: non-standard residue; d: D form. Cha = N[C@@H](CC1CCCCC1)C(=O)O

How the values were obtained:
[1] = molecular target: T1, C3aR (Homo sapiens, UniProt Q16581); conditions: cited from earlier work
T1 sequence (Q16581 1-482): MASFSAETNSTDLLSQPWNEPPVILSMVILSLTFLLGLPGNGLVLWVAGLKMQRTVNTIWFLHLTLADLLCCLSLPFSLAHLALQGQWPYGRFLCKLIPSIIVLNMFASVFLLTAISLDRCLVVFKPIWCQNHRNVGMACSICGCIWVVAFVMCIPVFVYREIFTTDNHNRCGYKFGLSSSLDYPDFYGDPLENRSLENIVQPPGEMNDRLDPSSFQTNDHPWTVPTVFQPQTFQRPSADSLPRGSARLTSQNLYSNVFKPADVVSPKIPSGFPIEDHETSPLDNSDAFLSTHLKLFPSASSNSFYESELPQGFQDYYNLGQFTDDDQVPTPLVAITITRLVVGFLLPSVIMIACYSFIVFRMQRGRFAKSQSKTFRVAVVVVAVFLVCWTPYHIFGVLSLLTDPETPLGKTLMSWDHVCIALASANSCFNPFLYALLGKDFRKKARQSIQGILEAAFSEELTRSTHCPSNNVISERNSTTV

[2] = molecular target: T2, C3aR (Mus musculus, UniProt O09047); assay: Mouse intestinal I/R injury: circulating neutrophils (white blood cell differentials); type: in vivo, mice; conditions: WT mice, I/R induced intestinal injury, 0.01 mg/kg i.v. 10 minutes prior to ischemia, compared with vehicle pre-treated WT mice
T2 construct: endogenous in cells; host or cells: live wild-type C57BL/6 mice (in vivo; receptor on neutrophils and other bone-marrow-derived cells)
T2 sequence (O09047 1-477): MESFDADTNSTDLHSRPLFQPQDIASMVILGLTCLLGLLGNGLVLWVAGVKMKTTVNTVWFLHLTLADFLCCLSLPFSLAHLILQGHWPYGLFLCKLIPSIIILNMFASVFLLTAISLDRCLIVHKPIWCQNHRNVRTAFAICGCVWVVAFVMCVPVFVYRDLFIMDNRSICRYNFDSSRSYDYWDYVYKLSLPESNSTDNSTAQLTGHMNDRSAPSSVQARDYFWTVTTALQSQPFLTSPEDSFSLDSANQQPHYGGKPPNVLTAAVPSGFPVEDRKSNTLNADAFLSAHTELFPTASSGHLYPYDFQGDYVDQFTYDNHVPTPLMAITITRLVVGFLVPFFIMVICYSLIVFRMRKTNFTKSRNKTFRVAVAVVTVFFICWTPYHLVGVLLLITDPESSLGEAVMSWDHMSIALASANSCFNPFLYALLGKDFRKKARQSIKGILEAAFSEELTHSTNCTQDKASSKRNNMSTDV
Method: (§1) Male C57BL/6 or C3aR knockout mice were fasted for around 12 hours before experimentation. Mice were anesthetized with 2% isoflurane and oxygen at 2 L/minute throughout the experiment. […] An immediate check of complete shut-off of the blood supply to the small intestine was confirmed visually (ischemia). The abdomen was then covered with moist gauze. After thirty minutes of the ischemia episode, the ligature was removed and restoration of blood supply to the intestine was confirmed visually (reperfusion). The midline laparotomy incision was then closed. Mice were administrated with saline (100 μL) intraperitoneally every hour to compensate for fluid loss. The same procedure was performed on sham-operated mice including a loop of ligature around their arteries; however the arteries were not occluded. After two and half hours of the reperfusion episode, mice were sacrificed, and tissues and blood were harvested. Their small intestines (0.5-1 cm pieces) were snap-frozen in liquid nitrogen and stored at −80° C. for later assays. […]
(§2) To determine white blood cell populations, cell differentials were employed using blood smears and The Kwik-Diff Staining System (Thermo Shandon). […] Samples were counted in triplicate, with a total 100 white blood cells per slide counted, and the number of neutrophils expressed as a percentage of total white blood cells.

[3] = system: C3aR; assay: as above; type: in vivo, mice; conditions: C3aR-/- mice, gut ischemia/reperfusion, 0.01 mg/kg i.v. 10 minutes prior to ischemia
Method: as §1, §2

[4] = molecular target: T2, C3aR; assay: Mouse intestinal I/R injury: myeloperoxidase (MPO) activity of small intestine; type: in vivo; conditions: WT mice, 0.01 mg/kg i.v. pre-treatment, compared with vehicle pre-treated WT mice
Method: (§3) Male C57BL/6 or C3aR knockout mice were fasted for around 12 hours before experimentation. Mice were anesthetized with 2% isoflurane and oxygen at 2 L/minute throughout the experiment. […] An immediate check of complete shut-off of the blood supply to the small intestine was confirmed visually (ischemia). The abdomen was then covered with moist gauze. After thirty minutes of the ischemia episode, the ligature was removed and restoration of blood supply to the intestine was confirmed visually (reperfusion). The midline laparotomy incision was then closed. Mice were administrated with saline (100 μL) intraperitoneally every hour to compensate for fluid loss. The same procedure was performed on sham-operated mice including a loop of ligature around their arteries; however the arteries were not occluded. After two and half hours of the reperfusion episode, mice were sacrificed, and tissues and blood were harvested. Their small intestines (0.5-1 cm pieces) were snap-frozen in liquid nitrogen and stored at −80° C. for later assays. […] The blood was centrifuge at 14,000 rpm for 15 min at 4° C., and the resulting plasma stored at −80° C. […]
Snap-frozen ileum (1 cm), excised at sacrifice, was briefly cleaned with ice-cold PBS and weighed. […] MPO activity was assayed spectrophotometrically at the absorbance 460 nm. […] The absorbance was measured using a Rainbow 96-well plate reader after 20 minutes.

[5] = molecular target: T2, C3aR; assay: Mouse intestinal I/R injury: alkaline phosphatase (ALP) measurement; type: in vivo; conditions: WT mice, I/R induced intestinal injury, 0.01 mg/kg i.v. pre-treatment, compared with vehicle pre-treated WT mice
Method: as §1
Intestinal ALP concentrations were measured according to the manufacturer's instructions (ALP reagents; Thermo Scientific, USA). […] The absorbance at 405 was immediately measured in a kinetic manner for 10 minutes at 37° C. The results were calculated as follows: Activity in U/L=ΔAbs/min×Factor.

[6] = molecular target: T2, C3aR; assay: Mouse intestinal I/R injury: histopathology of small intestine; type: in vivo; conditions: WT mice, 0.01 mg/kg i.v. pre-treatment, compared with vehicle pre-treated WT mice; scale 0-5
Method: as §1
At sacrifice, a section of ileum (0.5 cm) was removed and fixed in 4% paraformaldehyde in phosphate buffered saline (PBS) for at least 72 hours. […] Histological assessment was carried out in a blinded fashion using light microscopy at 40× magnification, and scored for severity on a scale of 0-5. […]

[7] = molecular target: T2, C3aR; assay: Mouse intestinal I/R injury: plasma cytokines (Cytometric Bead Array); type: in vivo; conditions: WT ischemia/reperfusion mice, 2.5 hours after ischemia
Method: as §3
Cytokines were measured using a Cytometric Bead Array from Becton Dickinson (flow cytometry that allows for the quantification of multiple cytokines simultaneously), using plasma isolated from mice at termination.

[8] = molecular target: T2, C3aR; assay: Mouse spinal cord injury (SCI): circulating white blood cell populations and total WBC counts; type: in vivo; conditions: SCI mice, 4 doses of 1 mg/kg s.c. every 6 hours, 24 hours post-injury
Method: Experimental mice were anaesthetized using Zoletil (50 mg/kg) and xylazine (10 mg/kg). Next, a dorsal laminectomy was performed on the 9th thoracic vertebra to expose the underlying spinal cord. Mice were then subjected to a force-controlled, moderate-severe (70 kdyne) contusion injury of the spinal cord using the Infinite Horizon impactor device (Ghasemlou et al., 2005). Post-operatively, mice were given antibiotics for 5 days (Gentamycin; 1 mg/kg) as well as a single dose of Hartmann's solution (1 ml) to prevent dehydration and to compensate for loss of bodily fluids. Bladders of spinal cord-injured mice were voided manually twice daily. […]
Blood samples were collected from experimental animals either via retro-orbital eye bleeds or heart punctures at the time of sacrifice. […] Next, the number of white blood cells per set sample volume was determined using the Countess automated cell counter (Invitrogen) as per manufacturer's instructions. […]
These experiments were performed to test whether C3aR can be used as a therapeutic target to improve the outcome from neurotraumatic events (neuronal death and axonal degeneration at sites of SCI are inevitably linked to neuroinflammation). […] The effect of EP67 treatment on circulating white blood cell populations after SCI relative to saline-treated controls was assessed via flow cytometry and total WBC counts as detailed above.

## FLTChaAR (FLT[Cha]AR)
[1]; literature (Scully et al. 2010), human C3aR
  functional antagonism at C3aR: functional antagonist of both C3a and the short peptide agonist FWTLAR

## WWGKKYRASKLGLAR (A synthetic EP141)
[2]
  percentage of circulating neutrophils: significantly (P<0.02) lower
[3]
  effect on circulating neutrophils (neutrophil mobilization) in C3aR knockout mice: inactive
[4]
  I/R induced MPO activity of the small intestine: significantly (P<0.05) lower
[5]
  plasma ALP levels: significantly (P<0.02) reduced
[6]
  I/R induced intestinal injury (histopathological scores of the small intestine): significantly reduced
[7]
  IL-6 levels in plasma: no significant change
[1]; literature (Ember et al. 1991; Scully et al. 2010; Denonne et al. 2007)
  C3aR agonist activity: highly potent and selective C3aR agonist

## YSFKDMP(MeL)aR [EP67]
[8]; compared to vehicle-treated control mice with SCI
  reduction in the blood granulocyte number: 30%
[8]; relative to vehicle-treated controls, p=0.07, data not shown
  total WBC count: trend towards a decrease
